Measurements reported in patent publication US6379665B1, “Phospholipase D polypeptide and DNA sequences” (Onyx Pharmaceuticals, Inc., priority 1996, dated 2002).

B1: hPLD1a: human phospholipase D1a, approximately 1074 amino acid protein, SEQ ID NO:2 (protein, listed as Homo sapiens)
chain: MSLKNEPRVNTSALQKIAADMSNIIENLDTRELHFEGEEVDYDVSPSDPKIQEVYIPFSAIYNTQGFKEPNIQTYLSGCPIKAQVLEVERFTSTTRVPSINLYTIELTHGEFKWQVKRKFKHFQEFHRELLKYKAFIRIPIPTRRHTFRRQNVREEPREMPSLPRSSENMIREEQFLGRRKQLEDYLTKILKMPMYRNYHATTEFLDISQLSFIHDLGPKGIEGMIMKRSGGHRIPGLNCCGQGRACYRWSKRWLIVKDSFLLYMKPDSGAIAFVLLVDKEFKIKVGKKETETKYGIRIDNLSRTLILKCNSYRHARWWGGAIEEFIQKHGTNFLKDHRFGSYAAIQENALAKWYVNAKGYFEDVANAMEEANEEIFITDWWLSPEIFLKRPVVEGNRWRLDCILKRKAQQGVRIFIMLYKEVELALGINSEYTKRTLMRLHPNIKVMRHPDHVSSTVYLWAHHEKLVIIDQSVAFVGGIDLAYGRWDDNEHRLTDVGSVKRVTSGPSLGSLPPAAMESMESLRLKDKNEPVQNLPIQKSIDDVDSKLKGIGKPRKFSKFSLYKQLHRHHLHDADSISSIDSTSSYFNHYRSHHNLIHGLKPHFKLFHPSSESEQGLTRPHADTGSIRSLQTGVGELHGETRFWHGKDYCNFVFKDWVQLDKPFADFIDRYSTPRMPWHDIASAVHGKAARDVARHFIQRWNFTKIMKSKYRSLSYPFLLPKSQTTAHELRYQVPGSVHANVQLLRSAADWSAGIKYHEESIHAAYVHVIENSRHYIYIENQFFISCADDKVVFNKIGDAIAQRILKAHRENQKYRVYVVIPLLPGFEGDISTGGGNALQAIMHFNYRTMCRGENSILGQLKAELGNQWINYISFCGLRTHAELEGNLVTELIYVHSKLLIADDNTVIIGSANINDRSMLGKRDSEMAVIVQDTETVPSVMDGKEYQAGRFARGLRLQCFRVVLGYLDDPSEDIQDPVSDKFFKEVWVSTAARNATIYDKVFRCLPNDEVHNLIQLRDFINKPVLAKEDPIRAEEELKKIRGFLVQFPFYFLSEESLLPSVGTKEAIVPMEVWT
B2: mPLD2: murine phospholipase D2, approximately 932 amino acid protein, SEQ ID NO:8 (protein, UniProt P97813 1-933, looked up)
Phospholipase D2: MTVTQKNLFPYGDYLNSSQLHMEPDEVDTLREGEDPADRMHPYLAIYDLQPLKAHPLVFAPGVPVIAQVVGTERYTSGSKVGTCTLYSVRLTHGDFTWTTKKKFRHFQELHRDLQRHKVLMSLLPLARFAVTHSPAREAAAEDIPSLPRGGSEGSARHTASKQKYLENYLNRLLTMSFYRNYHAMTEFLEVSQLSFIPDLGSKGLEGVIRKRSGGHRVPGFTFCGRDQVCYRWSKRWLVVKDSFLLYMRPETGAISFVQLFDPGFEVQVGKRSTETRYGVRIDTSHRSLILKCSSYRQARWWGQEITELAQGSGRDFLQLHQHDSYAPPRPGTLARWFVNGAGYFAAVADAILRAQEEIFITDWWLSPEIYLKRPAHSDDWRLDIMLKRKAEEGVRVSILLFKEVELALGINSGYSKRTLMLLHPNIKVMRHPDLVTLWAHHEKLLVVDQVVAFLGGLDLAFGRWDDVQYRLTDLGDPSEPVHLQTPTLGSDPAATPDLSHNQFFWLGKDYSNLITKDWVQLDRPFEDFIDRETTPRMPWRDVGVVVHGVAARDLARHFIQRWNFTKTTKARYKTPLYPYLLPKSTSTANNLPFMIPGGQCATVQVLRSVDRWSAGTLENSILNAYLHTIRESQHFLYIENQFFISCSDGRTVLNKVGDEIVDRILKAHEQGQCFRVYLLLPLLPGFEGDISTGGGNSIQAILHFTYRTLCRGEHSILHRLKAAMGTAWRDYMSICGLRTHGELGGHPISELIYIHSKMLIADDRTVIIGSANINDRSLLGKRDSELAILIKDTEMEPSLMDGVEYQAGRFALSLRKHCFSVILGANTWPDLDLRDPVCDDFFQLWQETAENNATIYEQIFRCLPSNATRSLRALREYVAVESLATVSPSLAQSELAHIQGHLVHFPLKFLEDESLLPPLGSKEGMIPLEVWT

Tests used:
[1] = standard headgroup release assay, fractions of hPLD1a baculovirus-infected Sf9 cells; assay type: biochemical; details: Sf9 cells infected 48 hours
Experimental: To determine the activity encoded by recombinant hPLD1a, control and hPLD1a-encoding baculovirus-infected Sf9 cells were assessed using a standard headgroup release assay that measures the amount of tritiated headgroup (e.g. [^3H]choline) liberated by hydrolysis of the labeled substrate [^3H]PC. The assay procedure measures release of the choline headgroup from the radiolabeled PC and is based on a protocol previously described in Brown, Cell 75:1137-44 (1993). Using standard separation techniques, cytosolic and membrane fractions were prepared from uninfected Sf9 cells or Sf9 cells infected for 48 hours with the hPLD1 expressing baculovirus vector. Sf9 cells infected with native baculovirus vector or PLC-expressing baculovirus vector yielded modest PLD activity levels similar to untransfected cells.

HL-60 cells = assay: RT-PCR quantification of hPLD1a and hPLD1b during dbcAMP-induced HL-60 cell differentiation; assay type: cell-based, human; details: 0.5 mM dbcAMP
Experimental: To analyze changes in the levels of hPLD1 a and hPLD1b during HL-60 cell differentiation induced by dcbAMP, HL-60 cells maintained in RPMI-1640 medium supplemented with 10% fetal bovine serum, 100 units/ml penicillin and 100 µg/ml streptomycin in a humidified atmosphere containing 5% CO2, at 37 C. were grown in RPMI-1640 medium without fetal bovine serum for 24 hours. Differentiation was initiated by the addition of 0.5 mM dbcAMP. Levels of PLD1a and PLD1b were quantified by RT-PCR. Total RNA was isolated from the HL-60 cells at the exponential growth stage by the acid guanidine thiocyanate method following the protocol of Chomczynski, Anal. Biochem. 162: 156-62(1992). Two g of RNA was reverse transcribed by using random hexamer mixed primers. The number of amplification cycles were determined to individual primer sets in order to maintain exponential rate of product amplification. Amplified DNA fragments were subjected to electrophoresis on 1.5% agarose gel and visualized by ethidium bromide staining. The intensity of bands was quantified by a densitometer (Atto Densitograph, Tokyo, Japan). Primer A (Forward): nucleotides 1475 through 1491; primer B (reverse) nucleotides 2133 through 2113 of SEQ ID NO: 1. Amplification conditions used were 94 C. for 30 seconds, 60 C. for 1 minute, and 72 C. for 1 minute; 25-27 cycles.

[2] = substrate specificity and transphosphatidylation assay of hPLD1a; assay type: biochemical
Experimental: Samples of the reaction products were applied to a 1 ml HPLC column of Source 15S resin (Pharmacia Biotech Inc.) and washed with 10 ml of H2O and eluted with a 30 ml linear gradient of 0-1 M CH3COONH4 in water at a flow rate of 1 ml/min. 1 ml fractions were collected and their radioactivity determined by liquid scintillation counting. Compounds were identified by reference to authentic standards. For analysis of phospholipid products, the vescicles were of standard composition except that approximately 10-20×10^3 dpm of [^32P]PC, [^32P]PE or [^32P]PI (specific radioactivity 10,000 dpm/nmol) was substituted for the [^3H]PC. Incubations were exactly as described except that transphosphatidylation assay contained 2% v/v EtOH. The assays were terminated by addition of 232 l of 1:1 CHCl2, MeOH. After mixing and centrifugation, the lower phases were removed, dried under vacuum, and analyzed by TLC on oxalate-impregnated Whatman 60A silica gel plates in a solvent system of CHCl2, MeOH:acetic acid (13:3:1, v/v). […]
To assess hPLD1a's substrate specificity, the standard PLD assay was carried out using [^32P]PE and [^32P]PI following the method as describe in Brown, Cell 75: 1137-44 (1993). […] To determine whether hPLD1a was capable of transphosphatidylase activity, EtOH was added to the reaction mixture and the products analyzed by thin layer chromatography. […]

COS-7 cells = assay: standard headgroup assay of extracts of COS-7 cells transfected with mPLD2; assay type: biochemical; details: pCGN expression vector
Experimental: Human PLD1a was also expressed in COS-7 cells. A fragment of the hPLD1a cDNA encoding the entire open reading frame (nucleotides 93 through 3603 of the cDNA) was subcloned in-frame downstream of the cytomegalovirus promoter and the Flu epitope tag in the mammalian expression vector pCGN. COS-7 cells were transfected with 3 g of the resulting plasmid, pFlu-hPLD1, using lipofectamine (Life Technologies, Inc.). Forty-eight hours later, the cells were assayed for PLD activity in the standard headgroup assay referenced below. The time course of choline release varied linearly over time and in proportion to the amount of protein added.
mPLD2 activity was assessed as described in Example 3 for hPLD1. The mPLD2 protein coding sequence was subcloned in pCGN, an expression vector containing a CMV promoter, flu-epitope tag and an SV40 polyadenylation signal sequence. See Example 3. […] The protein coding sequence of mPLD2 was also subcloned in a baculovirus vector following the protocol of Example 3. mPLD2 activity was successfully detected using the procedures described in Example 3.

| Molecule | cytosolic PLD activity above control ([1]; cytosolic fraction) | membrane-associated PLD activity above control ([1]; membrane fraction) | increase in level (printed as activity) on day 1 (HL-60 cells; day 1, RT-PCR) | increase in level (printed as activity) on day 2 (HL-60 cells; day 2, RT-PCR) | increase in level (printed as activity) on day 3 (HL-60 cells; day 3, RT-PCR) | transphosphatidylase activity ([2]; EtOH added, [^32P]PC, TLC) | hydrolysis of PE or PI ([2]; [^32P]PE and [^32P]PI as substrates) | PLD activity in transfected COS-7 cell extracts (COS-7 cells) |
| --- | --- | --- | --- | --- | --- | --- | --- | --- |
| B1 | 32 fold | 15 fold | approximately 3 fold | approximately 4 fold | less than 4 fold | catalyzes the formation of [^32P]phosphatidylethanol | unable to hydrolyze PE or PI | – |
| B2 | – | – | – | – | – | – | – | far above COS-7 background levels |
